Reference: patent publication US20250000992A1 (Eli Lilly, published 2025)

Target: T1, Sortilin receptor on HEK293 cells (UniProt Q99523 78-831, limits assumed)
T1 construct: whole, on cells
Assay: +/- matrix drawn left of the bar chart (Cathepsin D ELISA, HEK293 cells); the binding assay behind the marks is not given

binding result: binds
B1: His-PGRN (ligand)
single chain: HHHHHHGGGGQGGGGQGGGGQENLYFQSGGGGQTRCPDGQFCPVACCLDPGGASYSCCRPLLDKWPTTLSRHLGGPCQVDAHCSAGHSCIFTVSGTSSCCPFPEAVACGDGHHCCPRGFHCSADGRSCFQRSGNNSVGAIQCPDSQFECPDFSTCCVMVDGSWGCCPMPQASCCEDRVHCCPHGAFCDLVHTRCITPTGTHPLAKKLPAQRTNRAVALSSSVMCPDARSRCPDGSTCCELPSGKYGCCPMPNATCCSDHLHCCPQDTVCDLIQSKCLSKENATTDLLTKLPAHTVGDVKCDMEVSCPDGYTCCRLQSGAWGCCPFTQAVCCEDHIHCCPAGFTCDTQKGTCEQGPHQVPWMEKAPAHLSLPDPQALKRDVPCDNVSSCPSSDTCCQLTSGEWGCCPIPEAVCCSDHQHCCPQGYTCVAEGQCQRGSEIVAGLEKMPARRASLSHPRDIGCDQHTSCPVGQTCCPSLGGSWACCQLPHAVCCEDRQHCCPAGYTCNVKARSCEKEVVSAQPATFLARSPHVGVKDVECGEGHFCHDNQTCCRDNRQGWACCPYRQGVCCADRRHCCPAGFRCAARGTKCLRREAPRWDAPLRDPALRQLL
notes: 55; also called His tagged PGRN; His-Tagged PGRN
